Assay results: publication PMC9482650, “Quantitative fragmentomics allow affinity mapping of interactomes” (Nature Communications, 2022)

T1: GIPC1, O14908
T1 sequence (O14908 128-223, limits assumed, looked up): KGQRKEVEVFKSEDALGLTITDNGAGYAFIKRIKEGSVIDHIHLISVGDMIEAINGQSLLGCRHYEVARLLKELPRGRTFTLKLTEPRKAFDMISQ

T2: MLLT4, P55196
T2 sequence (P55196 1002-1103, limits assumed, looked up): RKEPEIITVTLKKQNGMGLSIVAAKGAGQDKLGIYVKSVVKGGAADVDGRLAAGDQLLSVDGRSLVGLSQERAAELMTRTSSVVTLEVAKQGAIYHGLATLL

T3: MPDZ_6, O75970
T3 sequence (O75970 1003-1099, limits assumed, looked up): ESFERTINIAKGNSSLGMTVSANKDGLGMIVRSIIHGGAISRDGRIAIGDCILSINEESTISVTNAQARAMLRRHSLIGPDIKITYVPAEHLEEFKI

T4: MPDZ_7, O75970
T4 sequence (O75970 1146-1253, limits assumed, looked up): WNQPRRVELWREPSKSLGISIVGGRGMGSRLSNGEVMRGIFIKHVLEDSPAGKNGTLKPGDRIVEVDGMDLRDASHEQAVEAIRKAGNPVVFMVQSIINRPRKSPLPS

T5: MPP5, Q8N3R9
T5 sequence (Q8N3R9 251-346, limits assumed, looked up): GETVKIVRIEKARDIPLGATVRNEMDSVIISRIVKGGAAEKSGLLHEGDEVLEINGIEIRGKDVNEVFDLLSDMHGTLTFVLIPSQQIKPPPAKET

T6: NHERF1_2, O14745
T6 sequence (O14745 149-244, limits assumed, looked up): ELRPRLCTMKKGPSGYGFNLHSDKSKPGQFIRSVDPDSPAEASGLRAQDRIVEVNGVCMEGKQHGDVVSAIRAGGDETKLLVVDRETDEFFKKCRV

T7: PDLIM3, Q53GG5
T7 sequence (Q53GG5 1-94, limits assumed, looked up): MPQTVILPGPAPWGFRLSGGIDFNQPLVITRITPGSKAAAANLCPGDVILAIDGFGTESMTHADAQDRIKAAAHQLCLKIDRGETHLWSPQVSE

T8: PDZD2_3, O15018
T8 sequence (O15018 581-682, limits assumed, looked up): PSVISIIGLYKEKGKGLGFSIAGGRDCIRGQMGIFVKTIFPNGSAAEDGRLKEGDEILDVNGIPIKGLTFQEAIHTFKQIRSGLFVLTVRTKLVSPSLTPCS

T9: PDZD2_4, O15018
T9 sequence (O15018 723-823, limits assumed, looked up): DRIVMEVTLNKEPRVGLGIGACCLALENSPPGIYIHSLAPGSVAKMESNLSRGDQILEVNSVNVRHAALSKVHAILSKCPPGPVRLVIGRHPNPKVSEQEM

T10: PREX2_2, Q70Z35
T10 sequence (Q70Z35 672-764, limits assumed, looked up): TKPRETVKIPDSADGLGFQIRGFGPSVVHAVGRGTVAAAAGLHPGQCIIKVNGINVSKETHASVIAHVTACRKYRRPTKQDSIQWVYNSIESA

T11: TIAM2, Q8IVF5
T11 sequence (Q8IVF5 885-986, limits assumed, looked up): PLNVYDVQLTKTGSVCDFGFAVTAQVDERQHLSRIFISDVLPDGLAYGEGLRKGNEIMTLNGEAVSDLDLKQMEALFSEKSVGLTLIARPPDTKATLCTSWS

T12: TJP3_1, O95049
T12 sequence (O95049 6-103, limits assumed, looked up): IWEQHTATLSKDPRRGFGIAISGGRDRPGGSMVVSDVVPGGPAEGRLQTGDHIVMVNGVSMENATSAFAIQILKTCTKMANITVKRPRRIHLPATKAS


Each binder was assayed against CARD14, Q9BXL6 (assay: holdup assay). Details: plain residues with an end cap or a label only (N-terminal biotin on a linker: ttds).
Sequence of CARD14, Q9BXL6 (Q9BXL6 558-663): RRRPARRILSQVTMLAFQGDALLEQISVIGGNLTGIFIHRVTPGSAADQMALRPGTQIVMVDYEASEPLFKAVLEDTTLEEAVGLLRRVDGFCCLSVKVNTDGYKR
Parameters: key: below the threshold = too weak to quantify, mostly under pKd 3.1 to 4

| Binder | pKd |
| --- | --- |
| SSLQSLETSV [ATP2B4, P23634] | below the threshold |
| SGSRPSATVV [HPV73-E6, Q82005] | 4.12 |

These binders were tested against DLG2_1, Q15700 (assay: holdup assay). Details: plain residues with an end cap or a label only (N-terminal biotin on a linker: ttds).
Parameters: key: below the threshold = too weak to quantify, mostly under pKd 3.1 to 4

| Binder | pKd |
| --- | --- |
| SSLQSLETSV [ATP2B4, P23634] | 4.94 |
| SGSRPSATVV [HPV73-E6, Q82005] | below the threshold |

The binders below were run against DLG5_2, Q8TDM6 (assay: holdup assay). Details: plain residues with an end cap or a label only (N-terminal biotin on a linker: ttds).
Sequence of DLG5_2, Q8TDM6 (Q8TDM6 714-800): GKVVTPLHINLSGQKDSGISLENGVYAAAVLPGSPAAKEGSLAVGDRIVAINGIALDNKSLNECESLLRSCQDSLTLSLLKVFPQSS
Parameters: key: below the threshold = too weak to quantify, mostly under pKd 3.1 to 4

| Binder | pKd |
| --- | --- |
| SSLQSLETSV [ATP2B4, P23634] | 4.34 |

What follows are binders tested against T1, GIPC1, O14908 (assay: holdup assay). Details: plain residues with an end cap or a label only (N-terminal biotin on a linker: ttds).
Parameters: key: below the threshold = too weak to quantify, mostly under pKd 3.1 to 4

| Binder | pKd |
| --- | --- |
| SGSRPSATVV [HPV73-E6, Q82005] | 4.64 |

The binders below were run against GRIP2_2, Q9C0E4 (assay: holdup assay). Details: plain residues with an end cap or a label only (N-terminal biotin on a linker: ttds).
Sequence of GRIP2_2, Q9C0E4 (Q9C0E4 137-245): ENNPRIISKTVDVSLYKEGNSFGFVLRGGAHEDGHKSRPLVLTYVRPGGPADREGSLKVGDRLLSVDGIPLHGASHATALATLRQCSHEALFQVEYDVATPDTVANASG
Parameters: key: below the threshold = too weak to quantify, mostly under pKd 3.1 to 4

| Binder | pKd |
| --- | --- |
| SSLQSLETSV [ATP2B4, P23634] | below the threshold |
| SGSRPSATVV [HPV73-E6, Q82005] | below the threshold |

These binders were tested against LIMK1, P53667 (assay: holdup assay). Details: plain residues with an end cap or a label only (N-terminal biotin on a linker: ttds).
Sequence of LIMK1, P53667 (P53667 155-268): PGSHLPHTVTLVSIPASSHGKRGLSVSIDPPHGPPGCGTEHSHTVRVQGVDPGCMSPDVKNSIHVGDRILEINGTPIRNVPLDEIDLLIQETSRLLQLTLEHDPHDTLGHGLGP
Parameters: key: below the threshold = too weak to quantify, mostly under pKd 3.1 to 4

| Binder | pKd |
| --- | --- |
| SSLQSLETSV [ATP2B4, P23634] | below the threshold |
| SGSRPSATVV [HPV73-E6, Q82005] | below the threshold |

The binders below were run against LMO7, Q8WWI1 (assay: holdup assay). Details: plain residues with an end cap or a label only (N-terminal biotin on a linker: ttds).
Sequence of LMO7, Q8WWI1 (Q8WWI1 1037-1138): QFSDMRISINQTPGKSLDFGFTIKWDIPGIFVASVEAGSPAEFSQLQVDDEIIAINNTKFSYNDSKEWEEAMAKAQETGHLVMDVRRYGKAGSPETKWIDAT
Parameters: key: below the threshold = too weak to quantify, mostly under pKd 3.1 to 4

| Binder | pKd |
| --- | --- |
| SSLQSLETSV [ATP2B4, P23634] | 4.5 |
| SGSRPSATVV [HPV73-E6, Q82005] | below the threshold |

What follows are binders tested against MAGI1_5, Q96QZ7 (assay: holdup assay). Details: plain residues with an end cap or a label only (N-terminal biotin on a linker: ttds).
Sequence of MAGI1_5, Q96QZ7 (Q96QZ7 986-1098): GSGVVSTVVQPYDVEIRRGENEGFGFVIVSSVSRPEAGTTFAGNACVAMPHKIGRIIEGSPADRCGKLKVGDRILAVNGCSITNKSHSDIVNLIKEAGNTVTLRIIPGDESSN
Parameters: key: below the threshold = too weak to quantify, mostly under pKd 3.1 to 4

| Binder | pKd |
| --- | --- |
| SSLQSLETSV [ATP2B4, P23634] | 4.66 |
| SGSRPSATVV [HPV73-E6, Q82005] | 4.11 |

What follows are binders tested against MAGI1_6, Q96QZ7 (assay: holdup assay). Details: plain residues with an end cap or a label only (N-terminal biotin on a linker: ttds).
Sequence of MAGI1_6, Q96QZ7 (Q96QZ7 1146-1238): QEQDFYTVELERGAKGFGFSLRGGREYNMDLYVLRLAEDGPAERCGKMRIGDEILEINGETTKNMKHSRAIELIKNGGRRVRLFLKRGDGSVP
Parameters: key: below the threshold = too weak to quantify, mostly under pKd 3.1 to 4

| Binder | pKd |
| --- | --- |
| SSLQSLETSV [ATP2B4, P23634] | 4.49 |
| SGSRPSATVV [HPV73-E6, Q82005] | below the threshold |

The binders below were run against MAGI3_6, Q5TCQ9 (assay: holdup assay). Details: plain residues with an end cap or a label only (N-terminal biotin on a linker: ttds).
Sequence of MAGI3_6, Q5TCQ9 (Q5TCQ9 1014-1103): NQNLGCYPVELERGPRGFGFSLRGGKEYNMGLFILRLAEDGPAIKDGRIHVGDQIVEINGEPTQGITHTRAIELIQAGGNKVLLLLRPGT
Parameters: key: below the threshold = too weak to quantify, mostly under pKd 3.1 to 4

| Binder | pKd |
| --- | --- |
| SSLQSLETSV [ATP2B4, P23634] | below the threshold |
| SGSRPSATVV [HPV73-E6, Q82005] | below the threshold |

What follows are binders tested against T2, MLLT4, P55196 (assay: holdup assay). Details: plain residues with an end cap or a label only (N-terminal biotin on a linker: ttds).
Parameters: key: below the threshold = too weak to quantify, mostly under pKd 3.1 to 4

| Binder | pKd |
| --- | --- |
| SSLQSLETSV [ATP2B4, P23634] | below the threshold |
| SGSRPSATVV [HPV73-E6, Q82005] | below the threshold |

Each binder was assayed against T3, MPDZ_6, O75970 (assay: holdup assay). Details: plain residues with an end cap or a label only (N-terminal biotin on a linker: ttds).
Parameters: key: below the threshold = too weak to quantify, mostly under pKd 3.1 to 4

| Binder | pKd |
| --- | --- |
| SSLQSLETSV [ATP2B4, P23634] | below the threshold |
| SGSRPSATVV [HPV73-E6, Q82005] | below the threshold |

Each binder was assayed against T4, MPDZ_7, O75970 (assay: holdup assay). Details: plain residues with an end cap or a label only (N-terminal biotin on a linker: ttds).
Parameters: key: below the threshold = too weak to quantify, mostly under pKd 3.1 to 4

| Binder | pKd |
| --- | --- |
| SSLQSLETSV [ATP2B4, P23634] | below the threshold |
| SGSRPSATVV [HPV73-E6, Q82005] | below the threshold |

The binders below were run against T5, MPP5, Q8N3R9 (assay: holdup assay). Details: plain residues with an end cap or a label only (N-terminal biotin on a linker: ttds).
Parameters: key: below the threshold = too weak to quantify, mostly under pKd 3.1 to 4

| Binder | pKd |
| --- | --- |
| SSLQSLETSV [ATP2B4, P23634] | below the threshold |
| SGSRPSATVV [HPV73-E6, Q82005] | below the threshold |

What follows are binders tested against T6, NHERF1_2, O14745 (assay: holdup assay). Details: plain residues with an end cap or a label only (N-terminal biotin on a linker: ttds).
Parameters: key: below the threshold = too weak to quantify, mostly under pKd 3.1 to 4

| Binder | pKd |
| --- | --- |
| SSLQSLETSV [ATP2B4, P23634] | below the threshold |
| SGSRPSATVV [HPV73-E6, Q82005] | below the threshold |

The binders below were run against T7, PDLIM3, Q53GG5 (assay: holdup assay). Details: plain residues with an end cap or a label only (N-terminal biotin on a linker: ttds).
Parameters: key: below the threshold = too weak to quantify, mostly under pKd 3.1 to 4

| Binder | pKd |
| --- | --- |
| SSLQSLETSV [ATP2B4, P23634] | below the threshold |
| SGSRPSATVV [HPV73-E6, Q82005] | below the threshold |

Each binder was assayed against PDLIM4, P50479 (assay: holdup assay). Details: plain residues with an end cap or a label only (N-terminal biotin on a linker: ttds).
Sequence of PDLIM4, P50479 (P50479 1-83): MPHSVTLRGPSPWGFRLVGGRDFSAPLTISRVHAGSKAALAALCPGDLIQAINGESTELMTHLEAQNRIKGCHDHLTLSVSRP
Parameters: key: below the threshold = too weak to quantify, mostly under pKd 3.1 to 4

| Binder | pKd |
| --- | --- |
| SSLQSLETSV [ATP2B4, P23634] | below the threshold |
| SGSRPSATVV [HPV73-E6, Q82005] | below the threshold |

What follows are binders tested against T8, PDZD2_3, O15018 (assay: holdup assay). Details: plain residues with an end cap or a label only (N-terminal biotin on a linker: ttds).
Parameters: key: below the threshold = too weak to quantify, mostly under pKd 3.1 to 4

| Binder | pKd |
| --- | --- |
| SSLQSLETSV [ATP2B4, P23634] | below the threshold |
| SGSRPSATVV [HPV73-E6, Q82005] | below the threshold |

These binders were tested against T9, PDZD2_4, O15018 (assay: holdup assay). Details: plain residues with an end cap or a label only (N-terminal biotin on a linker: ttds).
Parameters: key: below the threshold = too weak to quantify, mostly under pKd 3.1 to 4

| Binder | pKd |
| --- | --- |
| SSLQSLETSV [ATP2B4, P23634] | below the threshold |
| SGSRPSATVV [HPV73-E6, Q82005] | 4.26 |

What follows are binders tested against T10, PREX2_2, Q70Z35 (assay: holdup assay). Details: plain residues with an end cap or a label only (N-terminal biotin on a linker: ttds).
Parameters: key: below the threshold = too weak to quantify, mostly under pKd 3.1 to 4

| Binder | pKd |
| --- | --- |
| SSLQSLETSV [ATP2B4, P23634] | below the threshold |
| SGSRPSATVV [HPV73-E6, Q82005] | below the threshold |

The binders below were run against PTPN13_2, Q12923 (assay: holdup assay). Details: plain residues with an end cap or a label only (N-terminal biotin on a linker: ttds).
Sequence of PTPN13_2, Q12923 (Q12923 1363-1462): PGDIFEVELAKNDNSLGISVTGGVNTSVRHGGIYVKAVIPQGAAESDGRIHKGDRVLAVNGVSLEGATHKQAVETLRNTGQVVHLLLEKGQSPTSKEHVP
Parameters: key: below the threshold = too weak to quantify, mostly under pKd 3.1 to 4

| Binder | pKd |
| --- | --- |
| SSLQSLETSV [ATP2B4, P23634] | 4.45 |
| SGSRPSATVV [HPV73-E6, Q82005] | below the threshold |

The binders below were run against SDCBP_1, O00560 (assay: holdup assay). Details: plain residues with an end cap or a label only (N-terminal biotin on a linker: ttds).
Sequence of SDCBP_1, O00560 (O00560 111-198): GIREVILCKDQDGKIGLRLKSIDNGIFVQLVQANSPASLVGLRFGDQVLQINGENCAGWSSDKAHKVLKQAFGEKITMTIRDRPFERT
Parameters: key: below the threshold = too weak to quantify, mostly under pKd 3.1 to 4

| Binder | pKd |
| --- | --- |
| SSLQSLETSV [ATP2B4, P23634] | below the threshold |
| SGSRPSATVV [HPV73-E6, Q82005] | below the threshold |

Each binder was assayed against T11, TIAM2, Q8IVF5 (assay: holdup assay). Details: plain residues with an end cap or a label only (N-terminal biotin on a linker: ttds).
Parameters: key: below the threshold = too weak to quantify, mostly under pKd 3.1 to 4

| Binder | pKd |
| --- | --- |
| SSLQSLETSV [ATP2B4, P23634] | below the threshold |
| SGSRPSATVV [HPV73-E6, Q82005] | below the threshold |

These binders were tested against T12, TJP3_1, O95049 (assay: holdup assay). Details: plain residues with an end cap or a label only (N-terminal biotin on a linker: ttds).
Parameters: key: below the threshold = too weak to quantify, mostly under pKd 3.1 to 4

| Binder | pKd |
| --- | --- |
| SSLQSLETSV [ATP2B4, P23634] | below the threshold |
| SGSRPSATVV [HPV73-E6, Q82005] | 4.21 |
